Results: PMC11606652

Target: Kluyveromyces marxianus GCN2 histidyl-tRNA synthetase-like (HRSL) domain, residues 996-1,511 (Kluyveromyces marxianus)
Test: SEC

Kluyveromyces marxianus GCN2 histidyl-tRNA synthetase-like (HRSL) domain, residues 996-1,511 (domain or fragment)
stoichiometry N: 2
